Results taken from the supplement of paper PMC5998384.

What was measured:
[1] = tested on: HeLa Kyoto; experiment: solubility in G1/S (NP-40 vs SDS abundance) (log2 ratio); higher = more soluble; details: cell cycle stage: G1/S
[2] = tested on: HeLa Kyoto; experiment: solubility change mitosis vs G1/S (difference of NP-40 vs SDS log2 ratios) (log2 ratio difference); higher = more soluble in mitosis
[3] = tested on: HeLa Kyoto; experiment: thermal stability score vs G1/S (z-score of summed log2 fold changes over temperatures); higher = more thermally stable than in G1/S
[4] = tested on: HeLa Kyoto; experiment: melting temperature (median over replicates), in situ; higher = more thermally stable
[5] = cell cycle stage: early G1 (4.5 h after nocodazole release)
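Throughout, for melting temperature (median over replicates), in situ: HeLa Kyoto cells synchronized by double thymidine or nocodazole block, proteins quantified by TMT10plex mass spectrometry, three independent biological replicates.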
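Throughout, for solubility change mitosis vs G1/S (difference of NP-40 vs SDS log2 ratios): synchronized HeLa Kyoto cells (double thymidine block for G1/S, nocodazole release for mitosis), protein amounts in NP-40 versus SDS lysates quantified by mass spectrometry, three biological replicates.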
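Throughout, for solubility in G1/S (NP-40 vs SDS abundance): HeLa Kyoto cells arrested at G1/S by double thymidine block, proteins quantified by TMT10plex mass spectrometry in mild NP-40 versus SDS extracts, three biological replicates.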
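Throughout, for thermal stability score vs G1/S (z-score of summed log2 fold changes over temperatures): synchronized HeLa Kyoto cells, proteins quantified by TMT10plex mass spectrometry, three biological replicates, mitosis taken 0.5 h after nocodazole release, G1/S directly after double thymidine block.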

Sequence of NOS1AP (chain, as listed by the source): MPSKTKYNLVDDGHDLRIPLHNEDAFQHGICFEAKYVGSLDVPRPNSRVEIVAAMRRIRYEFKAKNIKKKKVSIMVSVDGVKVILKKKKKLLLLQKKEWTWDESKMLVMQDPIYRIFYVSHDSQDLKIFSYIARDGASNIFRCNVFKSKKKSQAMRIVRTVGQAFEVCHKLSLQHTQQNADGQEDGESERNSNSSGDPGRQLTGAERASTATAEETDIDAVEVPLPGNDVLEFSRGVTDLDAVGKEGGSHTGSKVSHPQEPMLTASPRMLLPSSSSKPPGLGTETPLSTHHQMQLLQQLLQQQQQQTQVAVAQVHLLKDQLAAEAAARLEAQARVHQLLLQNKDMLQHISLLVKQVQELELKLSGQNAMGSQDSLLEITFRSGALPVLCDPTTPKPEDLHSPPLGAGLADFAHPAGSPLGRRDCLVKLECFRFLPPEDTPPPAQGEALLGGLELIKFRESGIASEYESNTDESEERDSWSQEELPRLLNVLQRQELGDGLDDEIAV

Substance	solubility in G1/S (log2) [1]	solubility change mitosis (log2) [2]	thermal stability score [3, 5]	thermal stability score ([3]; cell cycle stage: mitosis)	melting temperature ([4]; cell cycle stage: G1/S) [°C]	melting temperature ([4]; cell cycle stage: mitosis) [°C]
NOS1AP	-0.0474	-0.0377	0.688	0.322	–	–
MGLSAAAPLWGPPGLLLAIALHPALSVPPRRDYCVLGAGPAGLQMAYFLQRAGRDYAVFERAPRPGSFFTRYPRHRKLISINKRYTGKANAEFNLRHDWNSLLSHDPRLLFRHYSRAYFPDARDMVRYLGDFADTLGLRVQYNTTIAHVTLDKDRQAWNGHYFILTDQKGQVHQCSVLFVATGLSVPNQVDFPGSEYAEGYESVSVDPEDFVGQNVLILGRGNSAFETAENILGVTNFIHMLSRSRVRLSWATHYVGDLRAINNGLLDTYQLKSLDGLLESDLTDLAILKDSKGKFHVTPKFFLEEANTNQSADSITLPQDDNDNFAMRVPYDRVIRCLGWNFDFSIFNKSLRLNSGNAFGKKYPLIRASYESKGSRGLFILGTASHSVDYRKSAGGFIHGFRYTVRAVHRLLEHRHHSVTWPATELPITQLTSSIVRRVNEASGLYQMFGVLADVILLKENSTAFEYLEEFPIQMLAQLETLTGRKAKHGLFVINMEYGRNFSGPDKDVFFDDRSVGHTEDAWQSNFLHPVIYYYRYLPTEQEVRFRPAHWPLPRPTAIHHIVEDFLTDWTAPIGHILPLRRFLENCLDTDLRSFYAESCFLFALTRQKLPPFCQQGYLRMQGLVSTESLWQHRVESRLLRDYAPTGRRLEDSSQQLGDQEPLGSPLAPGPLAQSVDSNKEEL [FOXRED2]	-0.0337	0.00992	0.289	1.28	–	–
MGEAGAGAGASGGPEASPEAEVVKLLPFLAPGARADLQAAAVRHVLALTGCGPGRALLAGQAALLQALMELAPASAPARDAARALVNLAADPGLHETLLAADPGLPARLMGRALDPQWPWAEEAAAALANLSREPAPCAALMAALAAAEPADSGLERLVRALCTPGYNARAPLHYLAPLLSNLSQRPAARAFLLDPDRCVVQRLLPLTQYPDSSVRRGGVVGTLRNCCFEHRHHEWLLGPEVDILPFLLLPLAGPEDFSEEEMERLPVDLQYLPPDKQREPDADIRKMLVEAIMLLTATAPGRQQVRDQGAYLILRELHSWEPEPDVRTACEKLIQVLIGDEPERGMENLLEVQVPEDVEQQLQQLDCREQEQLERELAPEPWVERATPT [HGH1]	0.131	0.156	–	–	48.7	50.5
MSYYLSSENHLDPGPIYMRENGQLHMVNLALDGVRSSLQKPRPFRLFPKGFSVELCMNREDDTARKEKTDHFIFTYTREGNLRYSAKSLFSLVLGFISDNVDHIDSLIGFPEQIAEKLFSAAEARQKFTEPGAGLRALQKFTEAYGSLVLCSLCLRNRYLVISEKLEEIKSFRELTCLDLSCCKLGDEHELLEHLTNEALSSVTQLHLKDNCLSDAGVRKMTAPVRVMKRGLENLTLLDLSCNPEITDAGIGYLFSFRKLNCLDISGTGLKDIKTVKHKLQTHIGLVHSKVPLKEFDHSNCKTEGWADQIVLQWERVTAEAVKPRETSEPRAAAQRFYGKRSRAEAPLKCPLADTHMNSSEKLQFYKEKAPDCHGPVLKHEAISSQESKKSKKRPFEESETEQNNSSQPSKQKYVCLAVEDWDLLNSY [LRRC42]	-0.0147	-0.111	–	–	49	50.9
MAPRGRKRKAEAAVVAVAEKREKLANGGEGMEEATVVIEHCTSURVYGRNAAALSQALRLEAPELPVKVNPTKPRRGSFEVTLLRPDGSSAELWTGIKKGPPRKLKFPEPQEVVEELKKYLS [SELH]	-0.0665	0.17	–	–	–	52.2
MAERPEDLNLPNAVITRIIKEALPDGVNISKEARSAISRAASVFVLYATSCANNFAMKGKRKTLNASDVLSAMEEMEFQRFVTPLKEALEAYRREQKGKKEASEQKKKDKDKKTDSEEQDKSRDEDNDEDEERLEEEEQNEEEEVDN [POLE3]	0.357	0.5	–	–	49.2	–
MSVAGGEIRGDTGGEDTAAPGRFSFSPEPTLEDIRRLHAEFAAERDWEQFHQPRNLLLALVGEVGELAELFQWKTDGEPGPQGWSPRERAALQEELSDVLIYLVALAARCRVDLPLAVLSKMDINRRRYPAHLARSSSRKYTELPHGAISEDQAVGPADIPCDSTGQTST [DCTPP1]	-0.0125	0.646	–	–	54.1	50.5
MAAPSEVAAIAPGEGDGGGGGFGSWLDGRLEALGVDRAVYGAYILGILQEEEEEEKLDALQGILSAFLEEDSLLNICKEIVERWSETQNVVTKVKKEDEVQAIATLIEKQAQIVVKPRMVSEEEKQRKAALLAQYADVTDEEDEADEKDDSGATTMNIGSDKLLFRNTNVEDVLNARKLERDSLRDESQRKKEQDKLQRERDKLAKQERKEKEKKRTQRGERKR [CCDC43]	0.483	0.216	–	–	53.8	53.7
MVGPAPRRRLRPLAALALVLALAPGLPTARAGQTPRPAERGPPVRLFTEEELARYGGEEEDQPIYLAVKGVVFDVTSGKEFYGRGAPYNALTGKDSTRGVAKMSLDPADLTHDTTGLTAKELEALDEVFTKVYKAKYPIVGYTARRILNEDGSPNLDFKPEDQPHFDIKDEF [NENF]	0.423	-0.0192	–	–	55.3	52.4
TNRC6A	-0.225	-0.0232	–	–	50.7	–
ARSB	0.364	-0.198	–	–	56.3	57.3
MNSVRAANRRPRRVSRPRPVQQQQQQPPQQPPPQPPQQQPPQQQPPPPPQQQQQQQPPPPPPPPPPLPQERNNVGERDDDVPADMVAEESGPGAQNSPYQLRRKTLLPKRTACPTKNSMEGASTSTTENFGHRAKRARVSGKSQDLSAAPAEQYLQEKLPDEVVLKIFSYLLEQDLCRAACVCKRFSELANDPILWKRLYMEVFEYTRPMMHPEPGKFYQINPEEYEHPNPWKESFQQLYKGAHVKPGFAEHFYSNPARYKGRENMLYYDTIEDALGGVQEAHFDGLIFVHSGIYTDEWIYIESPITMIGAAPGKVADKVIIENTRDSTFVFMEGSEDAYVGYMTIRFNPDDKSAQHHNAHHCLEITVNCSPIIDHCIIRSTCTVGSAVCVSGQGACPTIKHCNISDCENVGLYITDHAQGIYEDNEISNNALAGIWVKNHGNPIIRRNHIHHGRDVGVFTFDHGMGYFESCNIHRNRIAGFEVKAYANPTVVRCEIHHGQTGGIYVHEKGRGQFIENKIYANNFAGVWITSNSDPTIRGNSIFNGNQGGVYIFGDGRGLIEGNDIYGNALAGIQIRTNSCPIVRHNKIHDGQHGGIYVHEKGQGVIEENEVYSNTLAGVWVTTGSTPVLRRNRIHSGKQVGVYFYDNGHGVLEDNDIYNHMYSGVQIRTGSNPKIRRNKIWGGQNGGILVYNSGLGCIEDNEIFDNAMAGVWIKTDSNPTLRRNKIHDGRDGGICIFNGGRGLLEENDIFRNAQAGVLISTNSHPILRKNRIFDGFAAGIEITNHATATLEGNQIFNNRFGGLFLASGVNVTMKDNKIMNNQDAIEKAVSRGQCLYKISSYTSYPMHDFYRCHTCNTTDRNAICVNCIKKCHQGHDVEFIRHDRFFCDCGAGTLSNPCTLAGEPTHDTDTLYDSAPPIESNTLQHN [FBXO11]	-1.25	0.764	–	–	–	52.6
RINT1	-0.0714	-0.105	–	–	51.4	49.2
MDPGKDKEGVPQPSGPPARKKFVIPLDEDEVPPGVAKPLFRSTQSLPTVDTSAQAAPQTYAEYAISQPLEGAGATCPTGSEPLAGETPNQALKPGAKSNSIIVSPRQRGNPVLKFVRNVPWEFGDVIPDYVLGQSTCALFLSLRYHNLHPDYIHGRLQSLGKNFALRVLLVQVDVKDPQQALKELAKMCILADCTLILAWSPEEAGRYLETYKAYEQKPADLLMEKLEQDFVSRVTECLTTVKSVNKTDSQTLLTTFGSLEQLIAASREDLALCPGLGPQKARRLFDVLHEPFLKVP [ERCC1]	0.296	0.0087	–	–	–	51
MAAPWASLRLVAPMWNGRIRGIHRLGAAVAPEGNQKKKRTILQFLTNYFYDVEALRDYLLQREMYKVHEKNRSYTWLEKQHGPYGAGAFFILKQGGAVKFRDKEWIRPDKYGHFSQEFWNFCEVPVEAVDAGDCDINYEGLDNLLRLKELQSLSLQRCCHVDDWCLSRLYPLADSLQELSLAGCPRISERGLACLHHLQNLRRLDISDLPAVSNPGLTQILVEEMLPNCEVVGVDWAEGLKSGPEEQPRDTASPVPA [ATP5SL]	0.174	-0.0178	–	–	52.9	52
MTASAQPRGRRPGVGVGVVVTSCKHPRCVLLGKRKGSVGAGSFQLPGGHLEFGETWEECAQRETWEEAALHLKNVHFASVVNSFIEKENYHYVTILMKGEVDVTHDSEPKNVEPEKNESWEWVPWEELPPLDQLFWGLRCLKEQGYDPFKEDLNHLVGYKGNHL [NUDT15]	0.425	-0.3	–	–	53.4	52.3
MKAVKSERERGSRRRHRDGDVVLPAGVVVKQERLSPEVAPPAHRRPDHSGGSPSPPTSEPARSGHRGNRARGVSRSPPKKKNKASGRRSKSPRSKRNRSPHHSTVKVKQEREDHPRRGREDRQHREPSEQEHRRARNSDRDRHRGHSHQRRTSNERPGSGQGQGRDRDTQNLQAQEEEREFYNARRREHRQRNDVGGGGSESQELVPRPGGNNKEKEVPAKEKPSFELSGALLEDTNTFRGVVIKYSEPPEARIPKKRWRLYPFKNDEVLPVMYIHRQSAYLLGRHRRIADIPIDHPSCSKQHAVFQYRLVEYTRADGTVGRRVKPYIIDLGSGNGTFLNNKRIEPQRYYELKEKDVLKFGFSSREYVLLHESSDTSEIDRKDDEDEEEEEEVSDS [SNIP1]	-0.985	0.493	–	–	–	49.8
MSAHSMLCERIAIAKELIKRAESLSRSRKGGIEGGAKLCSKLKAELKFLQKVEAGKVAIKESHLQSTNLTHLRAIVESAENLEEVVSVLHVFGYTDTLGEKQTLVVDVVANGGHTWVKAIGRKAEALHNIWLGRGQYGDKSIIEQAEDFLQASHQQPVQYSNPHIIFAFYNSVSSPMAEKLKEMGISVRGDIVAVNALLDHPEELQPSESESDDEGPELLQVTRVDRENILASVAFPTEIKVDVCKRVNLDITTLITYVSALSYGGCHFIFKEKVLTEQAEQERKEQVLPQLEAFMKDKELFACESAVKDFQSILDTLGGPGERERATVLIKRINVVPDQPSERALRLVASSKINSRSLTIFGTGDTLKAITMTANSGFVRAANNQGVKFSVFIHQPRALTESKEALATPLPKDYTTDSEH [C7ORF25]	0.0643	0.0164	–	–	50.1	50
MATKDPTAVERANLLNMAKLSIKGLIESALSFGRTLDSDYPPLQQFFVVMEHCLKHGLKVRKSFLSYNKTIWGPLELVEKLYPEAEEIGASVRDLPGLKTPLGRARAWLRLALMQKKMADYLRCLIIQRDLLSEFYEYHALMMEEEGAVIVGLLVGLNVIDANLCVKGEDLDSQVGVIDFSMYLKNEEDIGNKERNVQIAAILDQKNYVEELNRQLNSTVSSLHSRVDSLEKSNTKLIEELAIAKNNIIKLQEENHQLRSENKLILMKTQQHLEVTKVDVETELQTYKHSRQGLDEMYNEARRQLRDESQLRQDVENELAVQVSMKHEIELAMKLLEKDIHEKQDTLIGLRQQLEEVKAINIEMYQKLQGSEDGLKEKNEIIARLEEKTNKITAAMRQLEQRLQQAEKAQMEAEDEDEKYLQECLSKSDSLQKQISQKEKQLVQLETDLKIEKEWRQTLQEDLQKEKDALSHLRNETQQIISLKKEFLNLQDENQQLKKIYHEQEQALQELGNKLSESKLKIEDIKEANKALQGLVWLKDKEATHCKLCEKEFSLSKRKHHCRNCGEIFCNACSDNELPLPSSPKPVRVCDSCHALLIQRCSSNLP [RUFY2]	-0.00835	-0.122	–	–	49.1	49.3
